Source: the RNAGym collection of RNA variant scans (doi:10.7554/elife.80360)

B1: Hairpin Ribozyme (parent)
chain: GUCCUCUUUCACGUGCGCGUGAAAGAGAGAAGUGAACCAGAGAAACACACGUUGUGGUAUAUUACCUGGUA

Variants of: B1
Experiment: self-cleavage, relative activity (ratio to wild type); higher = more cleavage; co-transcriptional
With G1C U60A the self-cleavage was 0.123. For G1C U60G, the self-cleavage was 0.0347. In the case of G1C A43U, the self-cleavage is reported as 0.171. For G1C A43C, the self-cleavage was 0.0543. G1C A41C showed a self-cleavage of 0.411. Variant G1C A41U has a self-cleavage of 0.229. For G1U A11C, the self-cleavage was 0.0545. In the case of G1C G51A, the self-cleavage is reported as 0.343. For G1C G29U, the self-cleavage was 0.129. G1A G13A gave a self-cleavage of 0.161. Variant G1C A64C has a self-cleavage of 0.186. Variant U2A G27C has a self-cleavage of 0.108. U2A G27A gave a self-cleavage of 0.127. For G1C G15C, the self-cleavage was 0.117. With G1C G15U the self-cleavage was 0.24. G1U G56A gave a self-cleavage of 0.127. With U2A G19U the self-cleavage was 0.244. Work on G1U A36C yielded a self-cleavage of 0.143. In the case of G1A A11C, the self-cleavage is reported as 0.139. Variant G1A A11G has a self-cleavage of 0.0942. For U2A C3A, the self-cleavage was 0.401. Variant G1A U14G has a self-cleavage of 0.195. For G1A U14C, the self-cleavage was 0.166. With G1A G17C the self-cleavage was 0.12. U2A A24C gave a self-cleavage of 0.134. For G1C A71G, the self-cleavage was 0.313. Work on G1C A47C yielded a self-cleavage of 0.0859. G1U C50G showed a self-cleavage of 0.124. Work on G1U A31C yielded a self-cleavage of 0.0695. In the case of G1U A31G, the self-cleavage is reported as 0.0331. For G1U C18A, the self-cleavage was 0.157. In the case of U2A G21C, the self-cleavage is reported as 0.186. U2A G21A gave a self-cleavage of 0.204. Work on G1A U53A yielded a self-cleavage of 0.12. In the case of G1A U53G, the self-cleavage is reported as 0.0863. In the case of G1A U53C, the self-cleavage is reported as 0.0768. G1A C12U showed a self-cleavage of 0.266. In the case of U2A G69A, the self-cleavage is reported as 0.215. In the case of G1U U52G, the self-cleavage is reported as 0.143. Variant G1U C66U has a self-cleavage of 0.0959. G1C A24U gave a self-cleavage of 0.19. In the case of G1A U52C, the self-cleavage is reported as 0.181. For G1C U67G, the self-cleavage was 0.0946. Work on G1C C4U yielded a self-cleavage of 0.228. G1C C4A gave a self-cleavage of 0.126. For U2A G56U, the self-cleavage was 0.179. In the case of G1C A30U, the self-cleavage is reported as 0.0862. G1C C48U showed a self-cleavage of 0.189. G1C C48G gave a self-cleavage of 0.086. G1C G56U gave a self-cleavage of 0.293. In the case of G1A U55G, the self-cleavage is reported as 0.0224. Work on G1U U33C yielded a self-cleavage of 0.173. Work on G1U A44U yielded a self-cleavage of 0.128. With G1A A39U the self-cleavage was 0.154. U2A G68C showed a self-cleavage of 0.154. G1C G54C gave a self-cleavage of 0.072. With G1C G54U the self-cleavage was 0.274. G1A C3U showed a self-cleavage of 0.136. G1A C3A gave a self-cleavage of 0.115. For U2A G34C, the self-cleavage was 0.501. Work on U2A G34A yielded a self-cleavage of 0.319. Variant G1C U63C has a self-cleavage of 0.285. In the case of G1C U63A, the self-cleavage is reported as 0.194. For U2A C10U, the self-cleavage was 0.208. Variant U2A C10A has a self-cleavage of 0.132. U2A C10G gave a self-cleavage of 0.238. G1U G51U gave a self-cleavage of 0.133. Work on U2A C65G yielded a self-cleavage of 0.146. Work on G1A C37A yielded a self-cleavage of 0.0752. Work on U2A C18U yielded a self-cleavage of 0.314. For G1C C38A, the self-cleavage was 0.281. In the case of G1C C38G, the self-cleavage is reported as 0.112. G1A G27U showed a self-cleavage of 0.153. With G1A G27A the self-cleavage was 0.144. For G1A C10G, the self-cleavage was 0.207. Work on G1C U58C yielded a self-cleavage of 0.16. With G1C U7A the self-cleavage was 0.229. In the case of G1C U7C, the self-cleavage is reported as 0.488. G1C G21C showed a self-cleavage of 0.378. U2A U20G gave a self-cleavage of 0.201. U2A C4A gave a self-cleavage of 0.165. In the case of G1A U67G, the self-cleavage is reported as 0.116. Variant G1A U67A has a self-cleavage of 0.193. G1C G32U showed a self-cleavage of 0.171. G1C C65G showed a self-cleavage of 0.148. Work on U2A U58C yielded a self-cleavage of 0.21. U2A U58G gave a self-cleavage of 0.161. In the case of G1A A41C, the self-cleavage is reported as 0.134. Variant G1A G25U has a self-cleavage of 0.102. Variant G1A G25A has a self-cleavage of 0.245. For G1U G54U, the self-cleavage was 0.141. For G1U G54A, the self-cleavage was 0.0766. U2A A35G gave a self-cleavage of 0.225. U2A A35C gave a self-cleavage of 0.374. In the case of U2A A35U, the self-cleavage is reported as 0.174. For G1A A71U, the self-cleavage was 0.196. Work on G1A A71C yielded a self-cleavage of 0.435. Variant G1C U9C has a self-cleavage of 0.198. With U2A A41G the self-cleavage was 0.0798. U2A A41C gave a self-cleavage of 0.379. In the case of U2A A30C, the self-cleavage is reported as 0.162. U2A G57U showed a self-cleavage of 0.109. In the case of G1U A24C, the self-cleavage is reported as 0.162. Work on G1U A24G yielded a self-cleavage of 0.0236. In the case of U2A G17C, the self-cleavage is reported as 0.22. G1C C3G gave a self-cleavage of 0.246. In the case of U2A A28C, the self-cleavage is reported as 0.258. U2A A28U showed a self-cleavage of 0.136. With G1C A28C the self-cleavage was 0.262. G1C U5A gave a self-cleavage of 0.133. In the case of G1C U5G, the self-cleavage is reported as 0.237. For G1C A39U, the self-cleavage was 0.187. In the case of U2A C46G, the self-cleavage is reported as 0.0818. With G1U U63A the self-cleavage was 0.215. With G1U U63C the self-cleavage was 0.181. Variant U2A C37A has a self-cleavage of 0.161. Variant G1A C16A has a self-cleavage of 0.172. G1U A64U gave a self-cleavage of 0.119. G1U A64C showed a self-cleavage of 0.166. G1A U70G gave a self-cleavage of 0.0827. G1C U55G showed a self-cleavage of 0.132. For G1A A45U, the self-cleavage was 0.106. For G1C C18U, the self-cleavage was 0.139. In the case of G1C C18G, the self-cleavage is reported as 0.307. With G1C C18A the self-cleavage was 0.177. With G1U G19C the self-cleavage was 0.105. Work on G1U G19U yielded a self-cleavage of 0.134. In the case of G1U A39C, the self-cleavage is reported as 0.118. Work on G1U A39U yielded a self-cleavage of 0.0669. In the case of G1A A31C, the self-cleavage is reported as 0.132. For G1A A31U, the self-cleavage was 0.284. U2A A71G gave a self-cleavage of 0.405. G1C A45U gave a self-cleavage of 0.217. Work on G1U C48G yielded a self-cleavage of 0.0484. G1C C66G gave a self-cleavage of 0.0728. Variant U2A A23G has a self-cleavage of 0.332. U2A G13U gave a self-cleavage of 0.186. G1C U53C showed a self-cleavage of 0.239. G1A A43C showed a self-cleavage of 0.144. U2A C50G gave a self-cleavage of 0.189. For G1A U7A, the self-cleavage was 0.127. For G1A U7C, the self-cleavage was 0.31. G1U U20C gave a self-cleavage of 0.203. Work on G1U U20G yielded a self-cleavage of 0.0885. In the case of G1U A49U, the self-cleavage is reported as 0.0947. With G1U A49C the self-cleavage was 0.202. With G1U G32U the self-cleavage was 0.0476. Variant G1A A23C has a self-cleavage of 0.221. Variant G1A A23G has a self-cleavage of 0.123. For G1C U20A, the self-cleavage was 0.175. For G1C G40U, the self-cleavage was 0.202. Work on G1C G40A yielded a self-cleavage of 0.0839. In the case of G1U C3U, the self-cleavage is reported as 0.255. G1U U9A showed a self-cleavage of 0.115. G1U U58G gave a self-cleavage of 0.253. For G1A C46U, the self-cleavage was 0.225. For G1U U70G, the self-cleavage was 0.0694. With G1U U70A the self-cleavage was 0.111. U2A C6A gave a self-cleavage of 0.238. Work on U2A C6U yielded a self-cleavage of 0.182. Variant U2A C6G has a self-cleavage of 0.247. In the case of U2A G42A, the self-cleavage is reported as 0.107. U2A A39C gave a self-cleavage of 0.133. Work on U2A A39G yielded a self-cleavage of 0.0775. G1A A44U showed a self-cleavage of 0.17. G1U G57C showed a self-cleavage of 0.145. For G1U G57U, the self-cleavage was 0.125.
